We go through four molecules from publication PMC12457548, “Comparative Characterization of Plasmodium falciparum Small Heat Shock Proteins and Their Inhibition by Quercetin (3,3′,4′,5,7-Pentahydroxyflavone)” (The Protein Journal, 2025).

For one series, the target named is T1, PfHsp20b (Plasmodium falciparum, UniProt Q8IB02).
T1 construct: gene PF3D7_0816500; full-length, residues 1–173, N-terminal 6xHis
T1 sequence (Q8IB02 1-172): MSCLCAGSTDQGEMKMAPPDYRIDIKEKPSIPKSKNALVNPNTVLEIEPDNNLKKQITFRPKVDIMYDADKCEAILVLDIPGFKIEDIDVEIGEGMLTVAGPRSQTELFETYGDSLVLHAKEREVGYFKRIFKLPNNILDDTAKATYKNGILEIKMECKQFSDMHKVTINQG
Description: inhibition of chaperone activity (suppression of heat-induced MDH/CS aggregation); CD, DSF and DLS shifts also measured. In kind it is biochemical.

The target of the next series is T2, PfHsp20a (Plasmodium falciparum, UniProt Q8IES0).
T2 construct: gene PF3D7_1304500; full-length, residues 1–211, N-terminal 6xHis
Described as above. The format is biochemical.

A further series has as its target T3, PfHsp20c (Plasmodium falciparum, UniProt Q8I5T9).
T3 construct: gene PF3D7_1211100; full-length, residues 1–231, N-terminal 6xHis
The series is described as above. In kind it is biochemical.

Series [1] deals with the molecule itself. Description: dynamic light scattering; as a1 but in the presence of 3 uM quercetin; 20 mM Tris pH 7.4, 300 mM NaCl, 25 °C; oligomer size estimated from the hydrodynamic radius.
Series [2] concerns the molecule itself. Description: dynamic light scattering; 0-6 uM protein alone in 20 mM Tris pH 7.4, 300 mM NaCl, 25 °C; oligomer size estimated from the average hydrodynamic radius with the fluidic webserver.

Take `O=c1c(O)c(-c2ccc(O)c(O)c2)oc2cc(O)cc(O)c12` [quercetin, 3,3′,4′,5,7-pentahydroxyflavone]: the values for the IC50 on PfHsp20b, on PfHsp20a and on PfHsp20c were 550 ± 100 nM, 320 ± 110 nM and 110 ± 70 nM, respectively.

B1: PfHsp20c (natural protein, Plasmodium falciparum, UniProt Q8I5T9 1-231, looked up)
chain: MSTTNILKPKIIIESSKEQGVGEKRSSTLSAPFEKNMFSTYSYSNPISNMRSSTHNEYKYNWTKYVNSSQIPHVDEYIKTFEGPNTTYYYETIPLKTNTNNIFEITPSQEELSRISYNPKIEIYSTCDFAVLMMDIPGVSKENLKVELEKGLLKVYGNKYKPHIEELEKRNEYHTKIIERLNEYYFCKIFQMPPAFSEGQNISCKLNNGELLVKILANELKTQKKVIDIQS
notes: Codon-harmonised synthetic gene in pQE30 between BamHI and HindIII; forms large oligomers in solution by DLS; also called PF3D7_1211100; P. falciparum Hsp20; source: E. coli XL1 Blue, purified (IMAC)
Consider B1, for which the “stoichiometry N” value in series [1] is 35.

B2: PfHsp20b (natural protein, Plasmodium falciparum, UniProt Q8IB02 1-172, looked up)
chain: MSCLCAGSTDQGEMKMAPPDYRIDIKEKPSIPKSKNALVNPNTVLEIEPDNNLKKQITFRPKVDIMYDADKCEAILVLDIPGFKIEDIDVEIGEGMLTVAGPRSQTELFETYGDSLVLHAKEREVGYFKRIFKLPNNILDDTAKATYKNGILEIKMECKQFSDMHKVTINQG
notes: Codon-harmonised synthetic gene in pQE30 between BamHI and HindIII; forms oligomers in solution by DLS; also called PF3D7_0816500; P. falciparum Hsp20; source: E. coli XL1 Blue, purified (IMAC)
Regarding B2, the “stoichiometry N” value is 37 in series [1] and around 38 in series [2].

B3: PfHsp20a (natural protein, Plasmodium falciparum, UniProt Q8IES0 1-211, looked up)
chain: MSENNLSKDNNKNKRNEALENAGMLDTFFESMYDHMNRLDQYHSDMNRMMNSLRGYYMNNDFFRFFPNRRSLTDYDINRNRNHDLLLSKPFSSMFRRDGYSNVPAMDVLDKEKHLEIKMDVPGLNKEDVQINLDDGKLEISGEFKKSHEQKDEQQRYYIKERCESSFYRSFTLPENVSEDEIKATFKDGVLKIDIPKKDIPDKKKKKIEID
notes: Codon-harmonised synthetic gene in pQE30 between BamHI and HindIII; forms large oligomers in solution by DLS; also called PF3D7_1304500; P. falciparum Hsp20; source: E. coli XL1 Blue, purified (IMAC)
Regarding B3, the “stoichiometry N” value in series [1] is 40.

Broadly, the IC50 is the midpoint of a concentration-inhibition curve. The stoichiometry N is the number of molecules, sites or subunits per partner or assembly.
